Data reported in publication PMC8081665, “Structural and biochemical mechanisms of NLRP1 inhibition by DPP9” (Nature, 2021).
Like-named read-outs stand apart in the source and are kept apart here.

Key:
[1] = target: rat DPP9 (rat); assay: cryo-EM structure; purified complex after gel filtration, about 0.3 mg/ml in 25 mM Tris-HCl pH 8.0, 150 mM NaCl, 3 mM DTT; Titan Krios 300 kV
[2] = target: GST–rNLRP1 FIIND(S969A) (rat) (UniProt D9I2G3); assay: SEC; Superose 6 10/30, 10 mM Tris pH 8.0, 100 mM NaCl; purified GST–rNLRP1 FIIND(S969A)–rDPP9 complex incubated with fully processed rNLRP1 FIIND at a molar ratio of about 1:1 at 4 °C for 150 min
[3] = target: rat DPP9 (rat); assay: cryo-EM structure; purified complex after gel filtration, about 0.3 mg/ml in 25 mM Tris-HCl pH 8.0, 150 mM NaCl, 3 mM DTT; Titan Krios 300 kV; remark: listed apart in the source
Target sequence in this assay (Q8BVG4 other isoform, or with tags, fused parts or gaps): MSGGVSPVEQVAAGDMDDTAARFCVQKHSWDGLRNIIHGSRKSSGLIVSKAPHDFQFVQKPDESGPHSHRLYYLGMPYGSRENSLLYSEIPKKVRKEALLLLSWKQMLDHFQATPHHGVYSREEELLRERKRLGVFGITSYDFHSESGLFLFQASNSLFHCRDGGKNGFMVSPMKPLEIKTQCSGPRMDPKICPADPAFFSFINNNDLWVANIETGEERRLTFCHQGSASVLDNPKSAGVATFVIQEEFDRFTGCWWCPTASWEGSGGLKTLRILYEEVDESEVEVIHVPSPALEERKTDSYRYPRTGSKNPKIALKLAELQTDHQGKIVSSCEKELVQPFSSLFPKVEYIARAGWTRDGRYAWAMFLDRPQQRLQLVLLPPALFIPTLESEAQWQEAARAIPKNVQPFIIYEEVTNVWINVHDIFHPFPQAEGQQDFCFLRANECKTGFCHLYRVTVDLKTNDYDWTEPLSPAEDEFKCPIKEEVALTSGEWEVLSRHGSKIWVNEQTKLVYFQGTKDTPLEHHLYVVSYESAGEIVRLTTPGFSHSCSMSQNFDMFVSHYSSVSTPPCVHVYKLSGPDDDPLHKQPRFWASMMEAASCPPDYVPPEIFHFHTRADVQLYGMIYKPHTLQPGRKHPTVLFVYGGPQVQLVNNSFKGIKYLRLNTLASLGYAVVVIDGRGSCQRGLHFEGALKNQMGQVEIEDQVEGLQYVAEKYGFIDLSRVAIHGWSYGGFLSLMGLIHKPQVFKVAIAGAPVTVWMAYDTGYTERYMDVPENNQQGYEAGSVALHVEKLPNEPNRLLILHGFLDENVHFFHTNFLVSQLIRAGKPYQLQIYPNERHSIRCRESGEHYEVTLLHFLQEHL

[4] = target: the molecule itself; assay: as above
[5] = target: T1, UPA subdomain of the autocleaved rNLRP1 FIIND (rat, UniProt D9I2G3 969-1122); assay: crystal structure; rNLRP1 FIIND at 8 mg/ml, hanging drop at 18 °C, 1.0 M ammonium sulfate, 0.1 M Bis-Tris pH 5.5, 1% PEG 3,350; settings: both partners purified
T1 construct: rat NLRP1, from S969, the residue after the autocleavage site, to the end of the FIIND construct (1122); source: sf21 insect cells, purified; product of the autocleavage of rNLRP1 FIIND (822-1122)
T1 sequence (looked up): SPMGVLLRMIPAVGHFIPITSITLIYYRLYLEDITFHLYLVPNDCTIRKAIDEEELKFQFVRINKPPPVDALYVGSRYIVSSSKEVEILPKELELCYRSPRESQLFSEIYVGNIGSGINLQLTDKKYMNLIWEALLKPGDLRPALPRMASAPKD

Molecule rat DPP9 (enzyme) has a stoichiometry N [1] of 2 and a stoichiometry N [2] of 1.

B1: rNLRP1 FIIND–CARD(S969A) (domain or fragment)
chain: GDKHMEPLGTDDDFWGPSGPVSTEVVDRERNLYRVRLPMAGSYHCPSTGLHFVVTRAVTIEIGFCAWSQFLHETPLQHSHMVAGPLFDIKAEHGAVTAVCLPHFVSLQEGKVDSSLFHVAHFQDHGMVLETPARVEPHFAVLENPSFAPMGVLLRMIPAVGHFIPITSITLIYYRLYLEDITFHLYLVPNDCTIRKAIDEEELKFQFVRINKPPPVDALYVGSRYIVSSSKEVEILPKELELCYRSPRESQLFSEIYVGNIGSGINLQLTDKKYMNLIWEALLKPGDLRPALPRMASAPKDAPALLHFVDQHREQLVARVTSVDPLLDKLHGLVLSEEDYETVRAEATNQDKMRKLFRGSRSWSWDCKDHFYQALKETHPHLIMDLLEKSGGVSVRL
Work on B1 yielded a stoichiometry N [3] of 1.

B2: full-length rat NLRP1 (natural protein, UniProt D9I2G3 1-1218, looked up)
chain: MEESQSKQESNTRVAQHGSQQDVDPTFQTKRALEKERSKPRPRPLPRVQLQSLPGWSSTSKDVPLSQLIREMDHESRRCIHRSKKKLDRSEHISQGTIPEIYEKRKETISHTQSMEQKYLFQNFTKLLLLQKCCPGGSEKLVRESWHPCVPEEGGHMIEIQDLFDPNLDTEKKPQLVIIEGAAGIGKSTLARQVKRAWDEGQLYRDRFQHVFFFSCRELAQCKQLSLAELIAQGQEVPTAPTRQILSRPEKLLFILDGIDEPAWVLEDQNPELCVHWSQAQPVHTLLGSLLGKSILPEASLMLTARTTALQKLVPSLGQPHRVEVLGFSEFERKDYFYKYFAKERNTIIDFNLIGSIPVLLTLCEVPWVCWLLCTCLEKQMQQGEVLSLTSQTTTALCLKYLSLTIPGQHLSTQLRTLCSLAAEGICQRRTLFSKSDLCKQGLAEDAIATFLKIGVLQRQPSSLSYSFAHLCLQEFFAAMSYILEDSEEAHGDMGNDRTVETLVERYGRQNLFEAPTVRFLLGLLNTREMREMENIFACKFPWETKLKLLQSIIGEPFCQPCHLGLFHCLYENQEEELLTETMLCFPLTASGPNHMEATVFQTNVKRLVIQTDMELMVVTFCITFSHVRSLRLKGKGQQEYKLTAPAMVLYRWTPISEASWKVLFSNLKCTRNLEELDLSGNPLSYSAVRSLCTALRQPGCRLKTLWLVDCGLTSRCCSFLASMLSAHSRLAELDLRLNDLGDNGVRQLCEGLRNPACNLSILRLDQASLSEQVITELRALETKNPKLFISSTWMSHMTMPTENTDGEESLTSSKQQQQQSGDKHMEPLGTDDDFWGPSGPVSTEVVDRERNLYRVRLPMAGSYHCPSTGLHFVVTRAVTIEIGFCAWSQFLHETPLQHSHMVAGPLFDIKAEHGAVTAVCLPHFVSLQEGKVDSSLFHVAHFQDHGMVLETPARVEPHFAVLENPSFSPMGVLLRMIPAVGHFIPITSITLIYYRLYLEDITFHLYLVPNDCTIRKAIDEEELKFQFVRINKPPPVDALYVGSRYIVSSSKEVEILPKELELCYRSPRESQLFSEIYVGNIGSGINLQLTDKKYMNLIWEALLKPGDLRPALPRMASAPKDAPALLHFVDQHREQLVARVTSVDPLLDKLHGLVLSEEDYETVRAEATNQDKMRKLFRGSRSWSWDCKDHFYQALKETHPHLIMDLLEKSGGVSVRL
notes: rat NLRP1, residues 1-1218, gene synthesized from GenBank HM060632.1; Autocleaves in the FIIND between F968 and S969; of the second copy only UPA is seen, and the abstract calls it a UPA-CARD fragment; also called rNLRP1; full-length rNLRP1; source: sf21 insect cells (baculovirus), co-expressed with rDPP9, purified (GS4B, PreScission, gel filtration); not shown: GST, N-terminal, cleaved
With B2 the stoichiometry N [3] was 2 and the binding result [4] was “binds”.

B3: ZU5 subdomain of the autocleaved rNLRP1 FIIND (domain or fragment, rat, UniProt D9I2G3 822-968, looked up)
chain: GDKHMEPLGTDDDFWGPSGPVSTEVVDRERNLYRVRLPMAGSYHCPSTGLHFVVTRAVTIEIGFCAWSQFLHETPLQHSHMVAGPLFDIKAEHGAVTAVCLPHFVSLQEGKVDSSLFHVAHFQDHGMVLETPARVEPHFAVLENPSF
notes: rat NLRP1, from the start of the FIIND construct (822) to F968, the residue before the autocleavage site; source: sf21 insect cells, purified; product of the autocleavage of rNLRP1 FIIND (822-1122); not shown: GST, N-terminal, cleaved
B3: binds [5].
